Square brackets hold non-standard residues; d marks the D form. Ends that are not written are not given here. Aib = CC(C)(N)C(=O)O
Molecular target: human GLP-1 receptor (human, UniProt P43220 24-463)
Experiment: cell-based or functional assay

H[Aib]QGTFTSDLSKQLDEQRA[(S)MeLys]DFIEWLIAGGPSSGAPPPS-NH2 [SEQ ID NO: 14]
EC50 hGLP-1R (cAMP formation, HTRF, HEK-293 cells): 1 pM
